{"source": "patent US7547676B2", "about": "“Antagonist peptides to the C5A chemotactic function of vitamin D binding protein” (The Research Foundation of State University of New York, priority 2004, dated 2009)", "molecules": {"B1": {"name": "DBP: Purified human DBP obtained from Biodesign International (protein)", "chain": "LERGRDYEKNKVCKEFSHLGKEDFTSLSLVLYSRKFPSGTFEQVSQLVKEVVSLTEACCAEGADPDCYDTRTSALSAKSCESNSPFPVHPGTAECCTKEGLERKLCMAALKHQPQEFPTYVEPTNDEICEAFRKDPKEYANQFMWEYSTNYGQAPLSLLVSYTKSYLSMVGSCCTSASPTVCFLKERLQLKHLSLLTTLSNRVCSQYAAYGEKKSRLSNLIKLAQKVPTADLEDVLPLAEDITNILSKCCESASEDCMAKELPEHTVKLCDNLSTKNSKFEDCCQEKTAMDVFVCTYFMPAAQLPELPDVELPTNKDVCDPGNTKVMDKYTFELSRRTHLPEVFLSKVLEPTLKSLGECCDVEDSTTCFNAKGPLLKKELSSFIDKGQELCADYSENTFTEYKKKLAERLKAKLPDATPTELAKLVNKHSDFASNCCSINSPPLYCDSEIDAELKNIL"}}, "key": {"[1]": {"target": "T1, DBP immobilized on a Biacore sensor chip (Homo sapiens, UniProt P02774)", "T1 construct": "DBP was purified from human plasma; purchased Biodesign International; host or cells: human plasma", "T1 sequence (P02774 17-474)": "B1 chain", "experiment": "Biacore surface plasmon resonance: U937-C5aR cell binding to immobilized DBP", "protocol": "FIG. 8A and FIG. 8B show immobilization of DBP on a Biacore surface plasmon resonance sensor chip CM5. Purified DBP in HBSS (5 μM) was coupled to the sensor chip. Coupling was detected using 5 μg/ml affinity-purified anti-DBP (FIG. 8A). Different concentrations of U937-C5aR cells in HBSS were injected into the flow cell and allowed to interact with the immobilized DBP (FIG. 8B). Data is expressed as response units of the molecular interaction on the sensor chip.\nFIGS. 9A to 9C show the effect of pretreating U937-C5aR cells with purified DBP or DBP peptides on the binding to DBP immobilized on a Biacore sensor chip. FIG. 9A: 10^6 cells/ml in HBSS were not treated (control), pretreated with 50 nM DBP, 0.5 μM DBP peptide 1 (p1) or DBP peptide 2 (p2). FIG. 9B: DBP peptide 1 immobilized to the Biacore sensor chip. FIG. 9C: DBP peptide 2 immobilized to the Biacore sensor chip. Data is expressed as response units of the molecular interaction on the sensor chip.\nU937-C5aR cells (10^6 cells/ml in HBSS) were pretreated with a 25 μg/ml control IgG, 50 nM purified DBP or 25 μg/ml affinity-purified anti-CD44 and then allowed to interact with DBP immobilized on a Biacore sensor chip. Data is expressed as response units of the molecular interaction on the sensor chip.\nAccording to the present invention, the interaction of an immobilized ligand, e.g., immobilized DBP, binding to cells can be measure by any established technology available in the art, e.g., by surface plasmon resonance (SPR) or Biacore technology. For example, in the present invention, the binding of U937-C5aR cells to immobilized DBP were examined by Biacore technology, the result of which is used to further determine if the DBP peptides generated in the present invention can alter the interaction U937-C5aR cells and DBP. […] To investigate further the effect of DBP peptides on cell binding, peptide 1 (FIG. 9B) and peptide 2 (FIG. 9C) were immobilized to Biacore sensor chips. […] Finally, the present invention also identifies that CD44 on the cell surface binds DBP and can, in part, mediate the C5a chemotactic cofactor effect of DBP (McVoy and Kew, J. Immunol. 175:4754, 2005). Therefore, using Biacore technology the present invention addresses the effect of blocking CD44 on U937-C5aR binding to immobilized DBP (FIG. 10). In the present invention, U937-C5aR cells were pretreated with either an irrelevant goat IgG (negative control), purified soluble DBP (positive control) or affinity-purified goat anti-CD44. […] These Biacore experiments have provided a powerful quantitative tool to investigate the cell binding region on DBP and examine the effects on DBP peptides on this interaction."}, "[2]": {"tested_on": "U937-C5aR cells", "experiment": "C5a-induced intracellular calcium mobilization in U937-C5aR cells", "assay_type": "cell-based, human", "details": "FIG. 11A; cells pretreated 30 min at 22° C. with 50 nM DBP", "protocol": "FIG. 11A and FIG. 11B show the effect of DBP on C5a-induced intracellular calcium mobilization in U937-C5aR cells. U937-C5aR cells (10^7 cells/ml) were resuspended in HBSS-1% BSA containing 2 μM Fluo-3 AM and incubated at 37° C. for 40 minutes. Cells incubated without the dye were used as a control to measure autofluorescence (Fmin). Following the dye uptake, cells were washed twice then suspended at 5×10^6 cells/ml in HBSS containing 1% BSA. For the pretreatment experiments, cells were incubated for 30 min at 22° C. with 50 nM DBP or 0.5 μM DBP peptide 1 (p1). For each measurement, 400 μl of cell suspension was added to a cuvette and stimulated with the indicated concentration of C5a (FIG. 11A) or 0.1 nM C5a (FIG. 11B). Fluorescence was then measured immediately using a Perkin-Elmer LS-5 fluorometer at 505 nm excitation, 526 nm emission for Fluo-3 AM. Fmax was measured by treating labeled cells with 60 μM digitonin. Intracellular free calcium concentrations were calculated using the following formula: (Ca^2+)=Kd (F−Fmin)/(Fmax−F), where Kd=325 nM for Fluo-3 according to manufacturer (Molecular Probes). Data are presented as mean±SEM (n=4-6) of the increase in intracellular calcium concentration.\nU937-C5aR cells (10^7 cells/ml) were resuspended in HBSS-1% BSA containing 2 μM Fluo-3 AM and incubated at 37° C. for 40 minutes. Cells incubated without the dye were used as a control to measure autofluorescence (Fmin). Following the dye uptake, cells were washed twice then suspended at 5×10^6 cells/ml in HBSS containing 1% BSA. Cells were incubated for 30 min at 22° C. with either 50 nM DBP or 0.5 μM DBP peptide. For each measurement, 400 μl of cell suspension was added to a cuvette and stimulated with 0.1 nM purified C5a. Fluorescence was then measured immediately using a Perkin-Elmer LS-5 fluorometer at 505 nm excitation, 526 nm emission for Fluo-3 AM. Fmax was measured by treating labeled cells with 60 μM digitonin. Intracellular free calcium concentrations were calculated using the following formula: (Ca2+)=Kd (F−Fmin)/(Fmax−F), where Kd=325 nM for Fluo-3 according to manufacturer (Molecular Probes)"}, "[3]": {"tested_on": "differentiated HL-60 cells", "experiment": "Ligand-induced calcium mobilization (Fluo-3 AM) in differentiated HL-60 cells", "assay_type": "cell-based, Human", "details": "untreated cells, DBP and C5a added simultaneously"}}}
{"molecule": "B1", "values": [{"measurement": "inhibition of U937-C5aR cell binding to the DBP chip", "setting": "[1]; FIG. 9A, 10^6 cells/ml pretreated with 50 nM DBP or 0.5 μM DBP peptide", "result": "almost completely blocked"}, {"measurement": "inhibition of U937-C5aR binding to immobilized DBP", "setting": "[1]; FIG. 10, cells pretreated with 50 nM purified DBP or 25 μg/ml anti-CD44", "result": "completely blocks binding"}, {"measurement": "effect on C5a-induced increase in intracellular calcium", "setting": "[2]", "result": "significantly augments"}, {"measurement": "calcium influx in response to C5a", "setting": "[3]", "result": "did not show augmented calcium influx"}]}
